According to patent US20080317723A1, “LYMPHATIC ENDOTHELIAL CELLS MATERIALS AND METHODS” (VEGENICS LIMITED, priority 2001, published 2008):

Legend:
hVEGFR-2 = target: T1, hVEGFR-2 (Homo sapiens, UniProt P35968); assay: Biosensor (BIAcore) analysis of ligand binding to immobilized VEGFR-2; details: hVEGFR-2 bivalent immunoglobulin fusion protein immobilized; global fitting, 1:1 Langmuirian model with mass transfer
T1 construct: Receptor domains were coupled to the carboxymethylated dextran layer of a CM5 sensor chip
Method: (§1) Biosensor Analysis. All preparations were analysed for homogeneity and buffer exchanged by micropreparative size exclusion HPLC using a Superose 12 (3.2/30) column installed in a SMART system (Amersham Pharmacia Biotech, Uppsala, Sweden) immediately prior to use (Nice and Catimel, Bioessays, 21:339-352, 1999). The concentrations of VEGF-C and VEGF-D were determined by absorbance at 280 nm using E280 1% 1 cm of 0-65. Receptor domains were coupled to the carboxymethylated dextran layer of a CM5 sensor chip using standard amine coupling chemistry (Nice and Catimel, Bioessays, 21:339-352, 1999) for analysis of ligad binding using a BIAcore 2000 optical biosensor (BIAcore, Uppsala, Sweden). The levels immobilized were 3,000 RU and 7,000 RU for VEGFR-2 and VEGFR-3, respectively. Following immobilization, residual activated ester groups were blocked by treatment with 1 M ethanolamine hydrochloride pH 8.5 followed by washing with 10 mM diethylamine to remove non-covalently bound material. 10 mM diethylamine or 10 mM HCl was used to regenerate the sensor surface between analyses for VEGF-D or VEGF-C binding, respectively. Samples were diluted in running buffer (10 mM HEPES pH 7.4, 150 mM NaCl, 3.4 mM EDTA, 0.005% Tween 20). The apparent binding affinities of VEGF-C and VEGF-C156S to receptor domains were determined by analysis of the initial dissociation phase to obtain the kd, which was then used to constrain a global analysis of the association region of the curves, assuming a 1:1 Langmuirian model. Data were analysed using BLAevaluation 3.0 (BIAcore, Uppsala, Sweden) as described previously (Catimel et al., J. Chromatogr., 776:15-30, 1997).
Biosensor analysis was used to further investigate the interactions of VEGF-C and VEGF-C156S with VEGFR-2 and VEGFR-3. Analysis of the biosensor binding curves confirmed that VEGF-C156S binds only to the extracellular domain of VEGFR-3, whereas wild type VEGF-C bound to both VEGFR-2 and VEGFR-3 receptors (FIG. 1D-FIG. 1G). […] However, in both assays the affinity of VEGF-C was higher towards VEGFR-3 than towards VEGFR-2.

hVEGFR-3 = target: T2, hVEGFR-3 (Homo sapiens, UniProt P35916); assay: Biosensor (BIAcore) analysis of ligand binding to immobilized VEGFR-3; details: hVEGFR-3 bivalent immunoglobulin fusion protein immobilized; global fitting, 1:1 Langmuirian model with mass transfer
T2 construct: Ig (immunoglobulin fusion partner); made in house
T2 sequence (P35916 25-775 limits assumed): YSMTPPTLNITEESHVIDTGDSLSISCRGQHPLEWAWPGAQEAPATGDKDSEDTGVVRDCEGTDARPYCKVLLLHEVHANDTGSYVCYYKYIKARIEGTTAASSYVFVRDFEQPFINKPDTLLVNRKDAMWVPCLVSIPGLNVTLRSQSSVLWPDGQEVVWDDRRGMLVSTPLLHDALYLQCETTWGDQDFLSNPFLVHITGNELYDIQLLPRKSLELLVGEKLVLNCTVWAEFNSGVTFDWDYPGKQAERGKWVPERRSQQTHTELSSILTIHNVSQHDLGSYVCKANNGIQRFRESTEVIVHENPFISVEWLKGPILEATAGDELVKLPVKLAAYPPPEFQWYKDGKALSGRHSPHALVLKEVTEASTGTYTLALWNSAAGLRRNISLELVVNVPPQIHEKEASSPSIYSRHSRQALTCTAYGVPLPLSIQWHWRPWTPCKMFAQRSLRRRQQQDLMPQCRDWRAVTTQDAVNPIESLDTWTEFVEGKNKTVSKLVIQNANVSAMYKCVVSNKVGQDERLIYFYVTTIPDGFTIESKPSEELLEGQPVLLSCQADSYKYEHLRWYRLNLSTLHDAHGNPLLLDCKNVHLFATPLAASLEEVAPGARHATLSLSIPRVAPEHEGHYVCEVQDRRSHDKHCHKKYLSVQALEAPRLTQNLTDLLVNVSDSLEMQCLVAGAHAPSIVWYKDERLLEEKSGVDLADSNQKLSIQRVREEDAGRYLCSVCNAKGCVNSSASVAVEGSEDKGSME
Method: as §1, with “Following immobilization, residual activated ester groups were blocked by treatment with 1 M ethanolamine hydrochloride pH 8.5 followed by washing with 10 mM diethylamine to remove non-covalently bound material. 10 mM diethylamine or 10 mM HCl was used to regenerate the sensor surface between analyses for VEGF-D or VEGF-C binding, respectively. Samples were diluted in running buffer (10 mM HEPES pH 7.4, 150 mM NaCl, 3.4 mM EDTA, 0.005% Tween 20).” left out, “1997). […]” for “1997).”

T1 sequence (P35968 20-764 limits assumed): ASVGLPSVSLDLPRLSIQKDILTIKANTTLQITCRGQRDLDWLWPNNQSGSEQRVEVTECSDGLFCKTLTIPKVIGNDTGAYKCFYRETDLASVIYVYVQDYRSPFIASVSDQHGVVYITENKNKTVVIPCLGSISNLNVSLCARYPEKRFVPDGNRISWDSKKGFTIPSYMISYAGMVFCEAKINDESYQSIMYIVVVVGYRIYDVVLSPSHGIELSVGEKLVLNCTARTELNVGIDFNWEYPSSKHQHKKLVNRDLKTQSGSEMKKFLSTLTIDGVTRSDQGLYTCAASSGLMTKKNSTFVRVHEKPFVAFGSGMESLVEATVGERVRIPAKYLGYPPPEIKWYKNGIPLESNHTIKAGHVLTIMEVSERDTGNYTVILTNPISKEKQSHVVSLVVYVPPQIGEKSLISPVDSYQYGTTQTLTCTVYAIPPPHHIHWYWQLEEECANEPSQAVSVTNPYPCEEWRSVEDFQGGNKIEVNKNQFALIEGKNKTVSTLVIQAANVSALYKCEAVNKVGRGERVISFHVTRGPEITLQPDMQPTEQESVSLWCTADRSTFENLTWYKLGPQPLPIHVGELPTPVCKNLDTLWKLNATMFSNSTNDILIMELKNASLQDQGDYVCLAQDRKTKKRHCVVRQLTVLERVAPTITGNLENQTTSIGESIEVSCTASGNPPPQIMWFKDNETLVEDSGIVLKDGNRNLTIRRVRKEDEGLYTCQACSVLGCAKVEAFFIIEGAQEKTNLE

- KD (hVEGFR-2): no binding
- Ka (hVEGFR-2): no binding
- Kd (hVEGFR-2): no binding
- Ka (hVEGFR-3): 3500 M⁻¹ s⁻¹
B1: VEGF-C156S: VEGFR-3 specific mutant form of VEGF-C, cysteine 156 changed into serine; recombinant human (Thr103 to Ile225) (protein, UniProt P49767 103-225, looked up, variant C156S)
chain: TEETIKFAAAHYNTEILKSIDNEWRKTQCMPREVCIDVGKEFGVATNTFFKPPSVSVYRCGGCCNSEGLQCMNTSTSYLSKTLFEITVPLSQGPKPVTISFANHTSCRCMSKLDVYRQVHSII
